# Experimental data reported in patent US20140348865A1, “[…] ON AN HIV-1 V1V2 SITE-OF-VULNERABILITY” (The United States of America, as represented by the …, priority 2011, published 2014).
# What was measured:
# [1] = molecular target: Env of HIV-1 strain 0439 (pseudovirus) (HIV-1)
# [2] = molecular target: Env of HIV-1 strain 398 (pseudovirus) (HIV-1)
# [3] = molecular target: Env of HIV-1 strain CNE56 (pseudovirus) (HIV-1)
# 1FD6-CAP45 V1V2 scaffold = experiment: ELISA, supernatant on His grab plates
# [4] = molecular target: Env of HIV-1 strain 6471 (pseudovirus) (HIV-1)
# [5] = molecular target: Env of HIV-1 strain 6631 (pseudovirus) (HIV-1)
# [6] = molecular target: Env of HIV-1 strain 3873 (pseudovirus) (HIV-1)
# [7] = molecular target: Env of HIV-1 strain CNE30 (pseudovirus) (HIV-1)
# [8] = molecular target: Env of HIV-1 strain 6322 (pseudovirus) (HIV-1)
# [9] = molecular target: Env of HIV-1 strain ZM135 (pseudovirus) (HIV-1)
substance,measurement,setting,value
monoclonal antibody PG9,neutralization IC50,Q769.h5,0.002 µg/mL
same,neutralization IC50,0815_V3_C3,> 50 µg/mL
same,neutralization IC50,[1],> 50 µg/mL
same,neutralization IC50,6545_V4_C1,0.095 µg/mL
same,neutralization IC50,R2184.c4,0.2 µg/mL
same,neutralization IC50,3718.v3.c11,0.05 µg/mL
same,neutralization IC50,R1166.c1,1.55 µg/mL
same,neutralization IC50,RW020.2,0.103 µg/mL
same,neutralization IC50,KER2018.11,0.001 µg/mL
same,neutralization IC50,MB539.2B7,0.058 µg/mL
same,neutralization IC50,[2],> 50 µg/mL
same,neutralization IC50,3415.v1.c1,0.149 µg/mL
same,neutralization IC50,R3265.c6,1.3 µg/mL
same,neutralization IC50,C2101.c1,0.026 µg/mL
same,neutralization IC50,CNE5,< 0.023 µg/mL
same,neutralization IC50,BS208.B1,0.031 µg/mL
same,neutralization IC50,3301_V1_C24,0.281 µg/mL
same,neutralization IC50,KER2008.12,0.017 µg/mL
same,neutralization IC50,6095_V1_C10,0.242 µg/mL
same,neutralization IC50,MI369.A5,0.058 µg/mL
same,neutralization IC50,[3],> 50 µg/mL
same,neutralization IC50,0330.v4.c3,0.018 µg/mL
same,neutralization IC50,CNE59,0.091 µg/mL
same,neutralization IC50,Q461.e2,3.01 µg/mL
same,neutralization IC50,M02138,0.122 µg/mL
same,neutralization IC50,CNE3,0.079 µg/mL
same,neutralization IC50,0260.v5.c36,2.18 µg/mL
same,neutralization IC50,6540.v4.c1,0.035 µg/mL
same,neutralization IC50,Q23.17,0.007 µg/mL
same,EC50,1FD6-CAP45 V1V2 scaffold,0.2 µg/mL
same,neutralization IC50,DU123.06,0.091 µg/mL
same,neutralization IC50,CNE53,0.147 µg/mL
same,neutralization IC50,DU422.01,0.303 µg/mL
same,neutralization IC50,MW965.26,1.99 µg/mL
same,neutralization IC50,DU172.17,0.262 µg/mL
same,neutralization IC50,[4],> 50 µg/mL
same,neutralization IC50,BR025.9,0.044 µg/mL
same,neutralization IC50,96ZM651.02,> 50 µg/mL
same,neutralization IC50,CH181.12,0.008 µg/mL
same,neutralization IC50,CAP210.E8,0.087 µg/mL
same,neutralization IC50,ZM146.7,0.635 µg/mL
same,neutralization IC50,CAP45.G3,< 0.023 µg/mL
same,neutralization IC50,[5],> 50 µg/mL
same,neutralization IC50,[6],> 50 µg/mL
same,neutralization IC50,[7],> 50 µg/mL
same,neutralization IC50,SO18.18,0.061 µg/mL
same,neutralization IC50,3168.V4.C10,0.162 µg/mL
same,neutralization IC50,CH038.12,0.5 µg/mL
same,neutralization IC50,6785.V5.C14,< 0.023 µg/mL
same,neutralization IC50,CNE40,1.16 µg/mL
same,neutralization IC50,CH117.4,0.008 µg/mL
same,neutralization IC50,CNE31,13.5 µg/mL
same,neutralization IC50,ZM109.4,0.106 µg/mL
same,neutralization IC50,[8],> 50 µg/mL
same,neutralization IC50,[9],> 50 µg/mL
same,neutralization IC50,TZA125.17,0.231 µg/mL
same,neutralization IC50,3637.V5.C3,> 50 µg/mL
same,neutralization IC50,CAP244.D3,0.088 µg/mL
same,neutralization IC50,CNE58,< 0.023 µg/mL
same,neutralization IC50,CNE15,< 0.023 µg/mL
same,neutralization IC50,CNE7,1.66 µg/mL
same,neutralization IC50,ZM106.9,0.639 µg/mL
same,neutralization IC50,TZBD.02,0.266 µg/mL
same,neutralization IC50,0077_V1.C16,0.091 µg/mL
same,neutralization IC50,6644.V2.C33,0.033 µg/mL
same,neutralization IC50,ZA012.29,27 µg/mL
same,neutralization IC50,CNE57,> 50 µg/mL
same,neutralization IC50,ZM176.66,0.007 µg/mL
same,neutralization IC50,CH070.1,0.006 µg/mL
same,neutralization IC50,DU156.12,< 0.023 µg/mL
same,neutralization IC50,TV1.29,0.008 µg/mL
same,neutralization IC50,DU151.02,< 0.023 µg/mL
monoclonal antibody PG16,neutralization IC50,Q769.h5,0.002 µg/mL
same,neutralization IC50,0815_V3_C3,> 50 µg/mL
same,neutralization IC50,[1],> 50 µg/mL
same,neutralization IC50,6545_V4_C1,0.068 µg/mL
same,neutralization IC50,R2184.c4,0.28 µg/mL
same,neutralization IC50,3718.v3.c11,0.019 µg/mL
same,neutralization IC50,R1166.c1,0.587 µg/mL
same,neutralization IC50,RW020.2,0.07 µg/mL
same,neutralization IC50,KER2018.11,< 0.0006 µg/mL
same,neutralization IC50,MB539.2B7,0.025 µg/mL
same,neutralization IC50,[2],> 50 µg/mL
same,neutralization IC50,3415.v1.c1,0.036 µg/mL
same,neutralization IC50,R3265.c6,0.036 µg/mL
same,neutralization IC50,C2101.c1,0.009 µg/mL
same,neutralization IC50,CNE5,< 0.023 µg/mL
same,neutralization IC50,BS208.B1,0.004 µg/mL
same,neutralization IC50,3301_V1_C24,< 0.023 µg/mL
same,neutralization IC50,KER2008.12,0.006 µg/mL
same,neutralization IC50,6095_V1_C10,< 0.023 µg/mL
same,neutralization IC50,MI369.A5,0.011 µg/mL
same,neutralization IC50,[3],> 50 µg/mL
same,neutralization IC50,0330.v4.c3,0.006 µg/mL
same,neutralization IC50,CNE59,0.113 µg/mL
same,neutralization IC50,Q461.e2,4.11 µg/mL
same,neutralization IC50,M02138,0.022 µg/mL
same,neutralization IC50,CNE3,0.173 µg/mL
same,neutralization IC50,0260.v5.c36,2.1 µg/mL
same,neutralization IC50,6540.v4.c1,0.017 µg/mL
same,neutralization IC50,Q23.17,0.002 µg/mL
same,EC50,1FD6-CAP45 V1V2 scaffold,9.1 µg/mL
same,neutralization IC50,DU123.06,< 0.023 µg/mL
same,neutralization IC50,CNE53,> 50 µg/mL
same,neutralization IC50,DU422.01,< 0.023 µg/mL
same,neutralization IC50,MW965.26,0.961 µg/mL
same,neutralization IC50,DU172.17,0.03 µg/mL
same,neutralization IC50,[4],> 50 µg/mL
same,neutralization IC50,BR025.9,0.009 µg/mL
same,neutralization IC50,96ZM651.02,> 50 µg/mL
same,neutralization IC50,CH181.12,0.002 µg/mL
same,neutralization IC50,CAP210.E8,< 0.023 µg/mL
same,neutralization IC50,ZM146.7,0.767 µg/mL
same,neutralization IC50,CAP45.G3,< 0.023 µg/mL
same,neutralization IC50,[5],> 50 µg/mL
same,neutralization IC50,[6],12.2 µg/mL
same,neutralization IC50,[7],> 50 µg/mL
same,neutralization IC50,SO18.18,0.023 µg/mL
same,neutralization IC50,3168.V4.C10,0.037 µg/mL
same,neutralization IC50,CH038.12,49 µg/mL
same,neutralization IC50,6785.V5.C14,< 0.023 µg/mL
same,neutralization IC50,CNE40,49 µg/mL
same,neutralization IC50,CH117.4,0.005 µg/mL
same,neutralization IC50,CNE31,2.51 µg/mL
same,neutralization IC50,ZM109.4,4.93 µg/mL
same,neutralization IC50,[8],> 50 µg/mL
same,neutralization IC50,[9],> 50 µg/mL
same,neutralization IC50,TZA125.17,0.024 µg/mL
same,neutralization IC50,3637.V5.C3,> 50 µg/mL
same,neutralization IC50,CAP244.D3,< 0.023 µg/mL
same,neutralization IC50,CNE58,< 0.023 µg/mL
same,neutralization IC50,CNE15,< 0.023 µg/mL
same,neutralization IC50,CNE7,0.393 µg/mL
same,neutralization IC50,ZM106.9,1.1 µg/mL
same,neutralization IC50,TZBD.02,0.025 µg/mL
same,neutralization IC50,0077_V1.C16,< 0.023 µg/mL
same,neutralization IC50,6644.V2.C33,35.3 µg/mL
same,neutralization IC50,ZA012.29,0.631 µg/mL
same,neutralization IC50,CNE57,> 50 µg/mL
same,neutralization IC50,ZM176.66,0.002 µg/mL
same,neutralization IC50,CH070.1,0.002 µg/mL
same,neutralization IC50,DU156.12,< 0.023 µg/mL
same,neutralization IC50,TV1.29,0.002 µg/mL
same,neutralization IC50,DU151.02,< 0.023 µg/mL
